Legend:
[1] = tested on: extracellular domain of VEGF-R2 (Flk1) fused to the Fc domain of mouse IgG
Ac-RRVR-AMC = tested on: T1, Ac-RRVR-AMC
T1 sequence: RRVR

Ac-IEFD-AMC [2] = target: T2, Ac-IEFD-AMC; experiment: Michaelis-Menten kinetics of fluorogenic tetrapeptide hydrolysis
T2 chain: XIEFDX

Ac-IEPD-AMC [3] = target: T3, Ac-IEPD-AMC; experiment: as above
T3 chain: XIEPDX

Ac-IEFD-AMC [4] = target: T2, Ac-IEFD-AMC
Ac-IEPD-AMC [5] = target: T3, Ac-IEPD-AMC
Ac-IKPD-AMC [6] = target: T4, Ac-IKPD-AMC; experiment: Michaelis-Menten kinetics of fluorogenic tetrapeptide hydrolysis
T4 chain: XIKPDX

Ac-IKPD-AMC [7] = target: T4, Ac-IKPD-AMC
Ac-IAPD-ACC = target: T5, Ac-IAPD-ACC
T5 chain: XIAPDX

Ac-IETD-AMC [8] = target: T6, Ac-IETD-AMC; experiment: Michaelis-Menten kinetics of fluorogenic tetrapeptide hydrolysis
T6 chain: XIETDX

Ac-IETD-AMC [9] = target: T6, Ac-IETD-AMC
Ac-LEPD-AMC = target: T7, Ac-LEPD-AMC
T7 chain: XLEPDX

extracellular domain of VEGF-R2 (Flk1) fused to the Fc domain of mouse IgG, sequence (chain, as listed by the source): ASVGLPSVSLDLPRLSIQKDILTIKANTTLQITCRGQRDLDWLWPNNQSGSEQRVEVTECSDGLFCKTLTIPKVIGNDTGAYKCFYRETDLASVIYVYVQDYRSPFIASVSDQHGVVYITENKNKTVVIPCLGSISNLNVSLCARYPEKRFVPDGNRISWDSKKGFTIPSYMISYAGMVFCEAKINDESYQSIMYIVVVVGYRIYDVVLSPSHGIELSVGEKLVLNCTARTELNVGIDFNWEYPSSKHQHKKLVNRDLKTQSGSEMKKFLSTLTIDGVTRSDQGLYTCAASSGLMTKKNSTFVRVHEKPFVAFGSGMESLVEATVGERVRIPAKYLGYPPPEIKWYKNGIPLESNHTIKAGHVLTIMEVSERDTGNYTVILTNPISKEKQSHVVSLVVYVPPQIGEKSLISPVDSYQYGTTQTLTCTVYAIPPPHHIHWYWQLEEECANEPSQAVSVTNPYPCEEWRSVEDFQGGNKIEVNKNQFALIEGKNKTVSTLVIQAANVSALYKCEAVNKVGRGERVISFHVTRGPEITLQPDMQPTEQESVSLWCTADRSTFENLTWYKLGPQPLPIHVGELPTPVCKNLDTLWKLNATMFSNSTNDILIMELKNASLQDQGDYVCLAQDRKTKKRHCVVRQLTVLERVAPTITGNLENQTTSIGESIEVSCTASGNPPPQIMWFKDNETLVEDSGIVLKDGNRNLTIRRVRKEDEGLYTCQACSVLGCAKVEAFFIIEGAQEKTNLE

## granzyme B mutein CB07 (I99A/N218A/Y174D)
[1]
  cleavage of purified VEGFR2-Fc (SDS-PAGE): The purified VEGFR2-Fc is efficiently cleaved by wild-type and mutant granzyme B ... None of the protease variants (wild-type or mutant) cleave the Fc domain
  in vitro cleavage of soluble Flk1-Fc (gel, FIG. 10): Wild-type granzyme B and the listed muteins cleave the VEGFR-Fc receptor

## MT-SP1 mutant D217F
[1]
  cleavage of purified VEGFR2-Fc (SDS-PAGE): Several mutants (N175D and D217F) cleave the receptor with higher efficiency than wild-type

## MT-SP1 mutein CB18 (L172D)
[1]
  cleavage of purified VEGFR2-Fc (SDS-PAGE): The mutant L172D cleaves full-length VEGFR2 but at a reduced rate compared to the wild-type

## MT-SP1 mutant N175D
[1]
  cleavage of purified VEGFR2-Fc (SDS-PAGE): Several mutants (N175D and D217F) cleave the receptor with higher efficiency than wild-type

## granzyme B mutein CB10 (I99A/N218A/R192M)
[1]
  cleavage of purified VEGFR2-Fc (SDS-PAGE): The purified VEGFR2-Fc is efficiently cleaved by wild-type and mutant granzyme B ... None of the protease variants (wild-type or mutant) cleave the Fc domain
  in vitro cleavage of soluble Flk1-Fc (gel, FIG. 10): Wild-type granzyme B and the listed muteins cleave the VEGFR-Fc receptor

## MT-SP1 mutein CB159 (F99I/L172D/Q175D)
Ac-RRVR-AMC
  kcat/Km (specificity constant): cut the Ac-RRVR-AMC substrate at 2.2 and 2.3×10^5 M^-1s^-1, respectively
  preference of RRVR over RQAR substrate (ratio of kcat/Km): prefer RRVR to RQAR by greater than 8 fold

## granzyme B mutein CB02 (I99A/N218A/L171E)
[1]
  cleavage of purified VEGFR2-Fc (SDS-PAGE): The purified VEGFR2-Fc is efficiently cleaved by wild-type and mutant granzyme B ... None of the protease variants (wild-type or mutant) cleave the Fc domain
  in vitro cleavage of soluble Flk1-Fc (gel, FIG. 10): Wild-type granzyme B and the listed muteins cleave the VEGFR-Fc receptor

## granzyme B mutein CB05 (I99A/N218A/K172D)
[1]
  cleavage of purified VEGFR2-Fc (SDS-PAGE): The purified VEGFR2-Fc is efficiently cleaved by wild-type and mutant granzyme B ... None of the protease variants (wild-type or mutant) cleave the Fc domain
  in vitro cleavage of soluble Flk1-Fc (gel, FIG. 10): Wild-type granzyme B and the listed muteins cleave the VEGFR-Fc receptor

## granzyme B mutein CB06 (I99A/N218A/Y174E)
[1]
  cleavage of purified VEGFR2-Fc (SDS-PAGE): The purified VEGFR2-Fc is efficiently cleaved by wild-type and mutant granzyme B ... None of the protease variants (wild-type or mutant) cleave the Fc domain
  in vitro cleavage of soluble Flk1-Fc (gel, FIG. 10): Wild-type granzyme B and the listed muteins cleave the VEGFR-Fc receptor

## MT-SP1 mutein CB155 (Y146D/K224F)
Ac-RRVR-AMC
  kcat/Km (specificity constant): cut the Ac-RRVR-AMC substrate at 2.2 and 2.3×10^5 M^-1s^-1, respectively

B1: rat granzyme B I99A (protein)
chain: IIGGHEAKPHSRPYMAYLQIMDEYSGSKKCGGFLIREDFVLTAAHCSGSKINVTLGAHNIKEQEKMQQIIPVVKIIPHPAYNSKTASNDIMLLKLKSKAKRSSAVKPLNLPRRNVKVKPGDVCYVAGWGKLGPMGKYSDTLQEVELTVQEDQKCESYLKNYFDKANEICAGDPKIKRASFRGDSGGPLVCKKVAAGIVSYGQNDGSTPRAFTKVSTFLSWIKKTMKKS
Ac-IEFD-AMC [2]
  Km: 880 µM
Ac-IEPD-AMC [3]
  Km: 2500 µM
Ac-IEFD-AMC [4]
  kcat: 0.24 s⁻¹
  kcat/Km: 270 M⁻¹ s⁻¹
Ac-IEPD-AMC [5]
  kcat: 0.14 s⁻¹
  kcat/Km: 57 M⁻¹ s⁻¹

B2: rat granzyme B N218A (protein)
chain: IIGGHEAKPHSRPYMAYLQIMDEYSGSKKCGGFLIREDFVLTAAHCSGSKINVTLGAHNIKEQEKMQQIIPVVKIIPHPAYNSKTISNDIMLLKLKSKAKRSSAVKPLNLPRRNVKVKPGDVCYVAGWGKLGPMGKYSDTLQEVELTVQEDQKCESYLKNYFDKANEICAGDPKIKRASFRGDSGGPLVCKKVAAGIVSYGQADGSTPRAFTKVSTFLSWIKKTMKKS
Ac-IEPD-AMC [3]
  Km: 700 µM
Ac-IKPD-AMC [6]
  Km: 1800 µM
Ac-IEPD-AMC [5]
  kcat: 1.6 s⁻¹
  kcat/Km: 2200 M⁻¹ s⁻¹
Ac-IKPD-AMC [7]
  kcat: 0.38 s⁻¹
  kcat/Km: 220 M⁻¹ s⁻¹

B3: rat granzyme B N218A/R192A (protein)
chain: IIGGHEAKPHSRPYMAYLQIMDEYSGSKKCGGFLIREDFVLTAAHCSGSKINVTLGAHNIKEQEKMQQIIPVVKIIPHPAYNSKTISNDIMLLKLKSKAKRSSAVKPLNLPRRNVKVKPGDVCYVAGWGKLGPMGKYSDTLQEVELTVQEDQKCESYLKNYFDKANEICAGDPKIKRASFAGDSGGPLVCKKVAAGIVSYGQADGSTPRAFTKVSTFLSWIKKTMKKS
Ac-IEPD-AMC [3]
  Km: 1700 µM
Ac-IKPD-AMC [6]
  Km: > 2000 µM
Ac-IEPD-AMC [5]
  Kcat: 0.16 s⁻¹
  Kcat/Km: 92 M⁻¹ s⁻¹
Ac-IAPD-ACC
  Kcat/Km: 29 M⁻¹ s⁻¹
Ac-IKPD-AMC [7]
  Kcat/Km: 55 M⁻¹ s⁻¹

B4: rat granzyme B N218T (protein)
chain: IIGGHEAKPHSRPYMAYLQIMDEYSGSKKCGGFLIREDFVLTAAHCSGSKINVTLGAHNIKEQEKMQQIIPVVKIIPHPAYNSKTISNDIMLLKLKSKAKRSSAVKPLNLPRRNVKVKPGDVCYVAGWGKLGPMGKYSDTLQEVELTVQEDQKCESYLKNYFDKANEICAGDPKIKRASFRGDSGGPLVCKKVAAGIVSYGQTDGSTPRAFTKVSTFLSWIKKTMKKS
Ac-IEPD-AMC [3]
  Km: 580 µM
Ac-IKPD-AMC [6]
  Km: 1800 µM
Ac-IEPD-AMC [5]
  Kcat: 3.6 s⁻¹
  Kcat/Km: 6200 M⁻¹ s⁻¹
Ac-IKPD-AMC [7]
  Kcat: 1.1 s⁻¹
  Kcat/Km: 600 M⁻¹ s⁻¹

B5: rat granzyme B Y174A (protein)
chain: IIGGHEAKPHSRPYMAYLQIMDEYSGSKKCGGFLIREDFVLTAAHCSGSKINVTLGAHNIKEQEKMQQIIPVVKIIPHPAYNSKTISNDIMLLKLKSKAKRSSAVKPLNLPRRNVKVKPGDVCYVAGWGKLGPMGKYSDTLQEVELTVQEDQKCESYLKNAFDKANEICAGDPKIKRASFRGDSGGPLVCKKVAAGIVSYGQNDGSTPRAFTKVSTFLSWIKKTMKKS
Ac-IEPD-AMC [3]
  Km: 1000 µM
Ac-IEPD-AMC [5]
  kcat: 0.87 s⁻¹
  kcat/Km: 470 M⁻¹ s⁻¹

B6: rat granzyme B I99F (protein)
chain: IIGGHEAKPHSRPYMAYLQIMDEYSGSKKCGGFLIREDFVLTAAHCSGSKINVTLGAHNIKEQEKMQQIIPVVKIIPHPAYNSKTFSNDIMLLKLKSKAKRSSAVKPLNLPRRNVKVKPGDVCYVAGWGKLGPMGKYSDTLQEVELTVQEDQKCESYLKNYFDKANEICAGDPKIKRASFRGDSGGPLVCKKVAAGIVSYGQNDGSTPRAFTKVSTFLSWIKKTMKKS
Ac-IETD-AMC [8]
  Km: 1900 µM
Ac-IEPD-AMC [3]
  Km: 500 µM
Ac-IETD-AMC [9]
  Kcat: 0.3 s⁻¹
  Kcat/Km: 153 M⁻¹ s⁻¹
Ac-IEFD-AMC [4]
  Kcat/Km: 410 M⁻¹ s⁻¹
Ac-LEPD-AMC
  Kcat/Km: 200 M⁻¹ s⁻¹
Ac-IEPD-AMC [5]
  Kcat: 0.56 s⁻¹
  Kcat/Km: 510 M⁻¹ s⁻¹
  specificity constant (kcat/Km): 1100 M⁻¹ s⁻¹

B7: rat granzyme B N218A/R192E (protein)
chain: IIGGHEAKPHSRPYMAYLQIMDEYSGSKKCGGFLIREDFVLTAAHCSGSKINVTLGAHNIKEQEKMQQIIPVVKIIPHPAYNSKTISNDIMLLKLKSKAKRSSAVKPLNLPRRNVKVKPGDVCYVAGWGKLGPMGKYSDTLQEVELTVQEDQKCESYLKNYFDKANEICAGDPKIKRASFEGDSGGPLVCKKVAAGIVSYGQADGSTPRAFTKVSTFLSWIKKTMKKS
Ac-IEPD-AMC [3]
  Km: > 2000 µM
Ac-IKPD-AMC [6]
  Km: > 2000 µM
Ac-IEPD-AMC [5]
  Kcat/Km: 10 M⁻¹ s⁻¹
Ac-IAPD-ACC
  Kcat/Km: 15 M⁻¹ s⁻¹
Ac-IKPD-AMC [7]
  Kcat/Km: 73 M⁻¹ s⁻¹

B8: rat granzyme B I99R (protein)
chain: IIGGHEAKPHSRPYMAYLQIMDEYSGSKKCGGFLIREDFVLTAAHCSGSKINVTLGAHNIKEQEKMQQIIPVVKIIPHPAYNSKTRSNDIMLLKLKSKAKRSSAVKPLNLPRRNVKVKPGDVCYVAGWGKLGPMGKYSDTLQEVELTVQEDQKCESYLKNYFDKANEICAGDPKIKRASFRGDSGGPLVCKKVAAGIVSYGQNDGSTPRAFTKVSTFLSWIKKTMKKS
Ac-IETD-AMC [8]
  Km: 2000 µM
Ac-IEFD-AMC [2]
  Km: 930 µM and The Km of the P2-Phe substrate (980 µM)
Ac-IEPD-AMC [3]
  Km: 1800 µM
Ac-IETD-AMC [9]
  Kcat: 0.3 s⁻¹
  Kcat/Km: 150 M⁻¹ s⁻¹
Ac-IEFD-AMC [4]
  Kcat: 0.47 s⁻¹
  Kcat/Km: 505 M⁻¹ s⁻¹
Ac-LEPD-AMC
  Kcat/Km: 12 M⁻¹ s⁻¹
Ac-IEPD-AMC [5]
  Kcat: 0.59 s⁻¹
  Kcat/Km: 330 M⁻¹ s⁻¹
  kcat: kcat is 0.47 s^-1 and 0.55 s^-1, respectively
